Results on six molecules are retold here after patent US20250243261A1.

Test [1] deals with full-length Ebola GP on pseudotyped lentivirus (Zaire ebolavirus) (UniProt Q05320). Put plainly: cell-based or functional assay.
Test [2] has as its target HA H4 Hubei, A/swine/Hubei/06/2009(H4N1) (Influenza A virus).

B1: mAb114 VH D42G-A68T-S79Y IgG (antibody, V domains shown)
VH: EVQLVESGGGLIQPGGSLRLSCAASGFALRMYDMHWVRQTIGKRLEWVSAVGPSGDTYYADSVKGRFTVSRENAKNSLYLQMNSLTAGDTAIYYCVRSDRGVAGLFDSWGQGILVTVSS
VL: DIQMTQSPSSLSASVGDRITITCRASQAFDNYVAWYQQRPGKVPKLLISAASALHAGVPSRFSGSGSGTHFTLTISSLQPEDVATYYCQNYNSAPLTFGGGTKVEIK
The molecule B1 registered an Ebola GP pseudotyped lentivirus IC50 in test [1] of 1.2 nM.

B2: mAb114 VH I41P-D42G-A68T-S79Y-I113T IgG (antibody, V domains shown)
VH: EVQLVESGGGLIQPGGSLRLSCAASGFALRMYDMHWVRQTPGKRLEWVSAVGPSGDTYYADSVKGRFTVSRENAKNSLYLQMNSLTAGDTAIYYCVRSDRGVAGLFDSWGQGTLVTVSS
VL: DIQMTQSPSSLSASVGDRITITCRASQAFDNYVAWYQQRPGKVPKLLISAASALHAGVPSRFSGSGSGTHFTLTISSLQPEDVATYYCQNYNSAPLTFGGGTKVEIK
Consider B2, for which the Ebola GP pseudotyped lentivirus IC50 in test [1] worked out at 1.2 nM.

B3: mAb114 VH A68T-E72D-S79Y-I113T / VL V43A IgG (antibody, V domains shown)
VH: EVQLVESGGGLIQPGGSLRLSCAASGFALRMYDMHWVRQTIDKRLEWVSAVGPSGDTYYADSVKGRFTVSRDNAKNSLYLQMNSLTAGDTAIYYCVRSDRGVAGLFDSWGQGTLVTVSS
VL: DIQMTQSPSSLSASVGDRITITCRASQAFDNYVAWYQQRPGKAPKLLISAASALHAGVPSRFSGSGSGTHFTLTISSLQPEDVATYYCQNYNSAPLTFGGGTKVEIK
In the case of B3, the Ebola GP pseudotyped lentivirus IC50 in test [1] was found to be 1.2 nM.

B4: mAb114 VH I41P-D42G-A68T-S79Y-I113T / VL V43A IgG (antibody, V domains shown)
VH: EVQLVESGGGLIQPGGSLRLSCAASGFALRMYDMHWVRQTPGKRLEWVSAVGPSGDTYYADSVKGRFTVSRENAKNSLYLQMNSLTAGDTAIYYCVRSDRGVAGLFDSWGQGTLVTVSS
VL: DIQMTQSPSSLSASVGDRITITCRASQAFDNYVAWYQQRPGKAPKLLISAASALHAGVPSRFSGSGSGTHFTLTISSLQPEDVATYYCQNYNSAPLTFGGGTKVEIK
In test [1], B4 yielded an Ebola GP pseudotyped lentivirus IC50 of 1 nM.

B5: mAb114 VH A68T-I113T / VL V43A IgG (antibody, V domains shown)
VH: EVQLVESGGGLIQPGGSLRLSCAASGFALRMYDMHWVRQTIDKRLEWVSAVGPSGDTYYADSVKGRFTVSRENAKNSLSLQMNSLTAGDTAIYYCVRSDRGVAGLFDSWGQGTLVTVSS
VL: DIQMTQSPSSLSASVGDRITITCRASQAFDNYVAWYQQRPGKAPKLLISAASALHAGVPSRFSGSGSGTHFTLTISSLQPEDVATYYCQNYNSAPLTFGGGTKVEIK
With B5, in test [1], the Ebola GP pseudotyped lentivirus IC50 was determined as 1.1 nM.

B6: MEDI8852 UCA VH V65P/VL G95P IgG (antibody, V domains shown)
VH: QVQLQQSGPGLVKPSQTLSLTCAISGDSVSSNSAAWNWIRQSPSRGLEWLGRTYYRSKWYNDYAPSVKSRITINPDTSKNQFSLQLNSVTPEDTAVYYCARGGHITIFGVNIDAFDIWGQGTMVTVSS
VL: DIQMTQSPSSLSASVGDRVTITCRASQSISSYLNWYQQKPGKAPKLLIYAASSLQSGVPSRFSGSGSGTDFTLTISSLQPEDFATYYCQQSRTFPQGTKVEIK
In the case of B6, in test [2], the Kd is 100 nM.

One may read the Kd as the equilibrium constant for the complex coming apart.
